± gives the uncertainty stated by the source.
Experiment: protein stability index of a GFP-peptide fusion (yeast GPS) (PSI 1-4); higher = more stable; sorted into four equal gates, so the index is relative within each strain
Conditions: ubr1∆
Method in brief: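 The protein stability index of a peptide was calculated by multiplying its read frequency in each gate by that gate's number and adding the products. The peptides were tiled 17-residue stretches of yeast proteins, fused downstream of GFP on a Cherry-expressing plasmid and carried in yeast as a pooled library. Mid-log cultures in leucine-free medium were sorted into four equal gates by GFP/Cherry ratio, and each gate's plasmids were PCR-amplified and Illumina-sequenced.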

Compared with CDVFWVQKDTAIIRLHP [POP1], CEKWAASSWAKKIAQRE [RPL14A] is lower in protein stability index: 2.58 ± 0.079 for the first, 2.06 ± 0.062 for the second.

First: CFDSTTGRDAGFGILED [RRP40]
Second: CFKPMSLTSKRLISQSL [RIP1]
The protein stability index of the first is higher: 3.41 ± 0.074 for the first, 2.1 ± 0.049 for the second.

Compared with CIIAVSCTLLERGHPKD [POP1], CISLGSTKLSRPFDSFG [ITC1] is higher in protein stability index: 1.96 ± 0.027 for the first, 3.01 ± 0.08 for the second.

Compared with CITLDQLAVRAPKGQNT [RPL18A], CKIDFQKNFMDQFQWIL [RRI2] is lower in protein stability index: 3.38 ± 0.095 for the first, 1.93 ± 0.13 for the second.

First: CKNFEKTQLGSTMTEPV [GAL11]
Second: CRVCSSHTGLVRKYDLN [RPS29B]
The protein stability index of the first is higher: 2.84 ± 0.039 for the first, 1.94 ± 0.047 for the second.

Going from CSDFVKILNLEKPLILA [NUT1] to CSHIFTSDQKNKRTQFS [RPB9], the protein stability index rises from 1.08 ± 0.071 to 2.53 ± 0.043.

Compared with CVEWRLPEIAKEIYTTL [YJR042W/NUP85], CVKLTVRSLLEVVQTGA [PRE6] is higher in protein stability index: 1.8 ± 0.066 for the first, 2.27 ± 0.29 for the second.

Going from DALRRGMLAMASLHSKE [MED4] to DAPFNKVVLKALFLSKI [RPL18A], the protein stability index falls from 2.05 ± 0.17 to 1.32 ± 0.067.

Going from DARGVIGVIAGGGRVDK [RPL2A] to DASPAPSNESCSPWSLQ [SRB5], the protein stability index falls from 2.86 ± 0.071 to 2.33 ± 0.033.

DASPDSLEALIDLCHDF [YCS4] and DAVLKIFSFHQDSIFQR [SRB8] are within error of each other in protein stability index: 2.86 ± 0.041 for the first, 2.77 ± 0.057 for the second.

DDDDDEDEEEEEEVTDQ [QCR6] and DDEPTTPAELVGKFLGY [FAS1] are within error of each other in protein stability index: 3.4 ± 0.12 for the first, 3.2 ± 0.12 for the second.

First: DDFEEDEDEEDDDDYNA [RPC31]
Second: DDFTDAIQFVKENELLF [YCS4]
The protein stability index of the first is higher: 3.46 ± 0.29 for the first, 1.92 ± 0.07 for the second.

Going from DDLQKFNGIENQSAYEW [ISW2] to DDNNNNNNNNNNNNSTR [GRR1], the protein stability index falls from 3.32 ± 0.14 to 3.03 ± 0.054.

First: DDRVDKKFVSQIQKNVD [POP3]
Second: DDYDYVMYGTAYKFEEV [RPB8]
The protein stability index of the first is higher: 3.44 ± 0.051 for the first, 2.72 ± 0.051 for the second.

DDYSNLKREERQGLIHQ [SMC3] and DEDLLDTQTFSVLLQQL [YGL172W/NUP49] are within error of each other in protein stability index: 2.7 ± 0.11 for the first, 2.57 ± 0.045 for the second.

Compared with DEELVSHFVSAVSTIAS [RPP0], DEFIKTHEDLPKEVDGL [IRR1] is higher in protein stability index: 2.03 ± 0.2 for the first, 3.21 ± 0.067 for the second.

DEFKDITKEVTQVNILK [YIL149C/MLP2] and DEGGAKSLLLNTLNIDN [BRN1] are within error of each other in protein stability index: 3.3 ± 0.057 for the first, 3.38 ± 0.075 for the second.

DEIKAQRKEIKDRISSC [SMC4] and DENGTNSAIANEQEEKS [RPC37] are the same in protein stability index: 3.07 ± 0.053 for the first, 3.07 ± 0.051 for the second.

Compared with DEQDDDNVNSTTGSIFE [BRN1], DFDDFLKLGLVEYLDVN [RET1] is higher in protein stability index: 2.85 ± 0.066 for the first, 3.06 ± 0.1 for the second.

Going from DFHFSTDRITRLFIKPG [BRN1] to DFITGSYLISHKDSFYD [RPO31], the protein stability index falls from 2.67 ± 0.048 to 1.83 ± 0.045.

Going from DFKEVEDFLHFIVAEYI [SRB4] to DFKTDVDEPMTSAVELG [YJL039C/NUP192], the protein stability index falls from 3.14 ± 0.056 to 2.85 ± 0.06.

DFTLPEDFAPLLAEEEE [PRP8] and DFTQEDELRKQELISKA [ISW2] are within error of each other in protein stability index: 3.2 ± 0.084 for the first, 3.09 ± 0.09 for the second.

Going from DFYTRHHFTCEITGTSC [ITC1] to DGDASKPAFSFGAKPDE [YJL041W/NSP1], the protein stability index rises from 1.65 ± 0.045 to 3.42 ± 0.043.

First: DGHYIEENSQGNILDFN [REC8]
Second: DHLIIEPEEEKSKREEE [ARP9]
The protein stability index of the first is lower: 2.81 ± 0.1 for the first, 3.2 ± 0.17 for the second.

Going from DHNALPQRCTFAFEAID [POP1] to DIAGQRDDALVVETITS [RRP42], the protein stability index falls from 3.09 ± 0.057 to 2.56 ± 0.092.

First: DIDLETYSFIDNDRFNV [YML103C/NUP188]
Second: DIEAGDDDDNNESSSNT [DIS3]
The protein stability index of the first is lower: 2.21 ± 0.042 for the first, 2.79 ± 0.12 for the second.

Compared with DIFVYLTYDKDLTNNPQ [MTR3], DIGSDPTLPRSDRECPK [RPB9] is higher in protein stability index: 2.28 ± 0.065 for the first, 3.14 ± 0.082 for the second.

DILLCYQKLFSQFINDH [SRB8] and DILLNERVWNICLYSSF [AAR2] are the same in protein stability index: 1.84 ± 0.034 for the first, 1.84 ± 0.04 for the second.

Compared with DINVESLTQSVCDLALR [PUP2], DIPLAKALDNACGAFIN [CDC53] is higher in protein stability index: 1.93 ± 0.037 for the first, 2.87 ± 0.072 for the second.

First: DITGDIRNEGSDAEEEE [ISW2]
Second: DITVHGEQIIVHPVNER [RRP45]
The protein stability index of the first is higher: 2.91 ± 0.068 for the first, 1.9 ± 0.083 for the second.

First: DKDNPVDSRNETDHKTN [SRB4]
Second: DKFPYKKLELPKYIDEL [SWP82]
The protein stability index of the first is higher: 3.3 ± 0.18 for the first, 2.83 ± 0.08 for the second.

DKFRKACSSSGRETILS [SIR3] and DKHLYHVLYKESKGNAF [RPL19A] are within error of each other in protein stability index: 2.64 ± 0.046 for the first, 2.77 ± 0.084 for the second.

DKIHARARGPMQVLTRQ [RPB2] and DKKHFNNKNKRVTGAGG [RPC53] are within error of each other in protein stability index: 3.21 ± 0.19 for the first, 3.31 ± 0.075 for the second.

Compared with DKKKGQNVTSETHSKKR [ITC1], DKKVTLITSEMFDAFVS [SIN4] is lower in protein stability index: 3.04 ± 0.039 for the first, 1.28 ± 0.042 for the second.

Going from DKLSGCYAPRPSAGPHK [RPS4A] to DKLTSIQDTLRTGSQSP [MED7], the protein stability index rises from 1.64 ± 0.041 to 2.89 ± 0.033.

Compared with DKPYLLRIVTHLAICLD [YDL116W/NUP84], DKQYRTAVATLLKELSK [SMC3] is higher in protein stability index: 1.58 ± 0.058 for the first, 2.72 ± 0.071 for the second.

DKRFSGSLKLPNCPRPN [RPL1A] and DLIADTITNSSSSSDII [YML103C/NUP188] are within error of each other in protein stability index: 2.6 ± 0.046 for the first, 2.56 ± 0.044 for the second.

Going from DLIETSFTCFAQFVSNK [NUT1] to DLKDILEKVVPLINVVV [BRR2], the protein stability index falls from 2.77 ± 0.076 to 2.51 ± 0.065.

Going from DLLPNSFAKLVPCEGKD [SMC2] to DLNHVTEELQTQYATSQ [SMC2], the protein stability index rises from 2.45 ± 0.039 to 3.44 ± 0.2.

Going from DLNPLKTLNLFKQIKSA [RPO31] to DLPETGFFENIETEFLL [IRR1], the protein stability index rises from 2.15 ± 0.071 to 3.13 ± 0.066.

DLQRTQTLSEKEYQCSA [YIL149C/MLP2] and DLSWSKQTDTGITHFRA [PRP8] are within error of each other in protein stability index: 2.96 ± 0.069 for the first, 3.02 ± 0.049 for the second.

First: DLVLGKPLADLRPLFTR [YLR335W/NUP2]
Second: DMENMADEQKRSTDVWY [ARP7]
The protein stability index of the first is lower: 2.27 ± 0.069 for the first, 2.55 ± 0.044 for the second.

Compared with DMLKYKEDEPVVARRSN [ITC1], DNFDYFNQRDGEHEKSN [MED1] is higher in protein stability index: 1.76 ± 0.063 for the first, 3.56 ± 0.14 for the second.

Compared with DNIDEKVVKAIRIYFTE [NUT1], DNISSFHSAVENLVQGN [YCG1] is higher in protein stability index: 2.39 ± 0.036 for the first, 3.31 ± 0.11 for the second.

Going from DNMSEEQWLRQFEVSDD [SNF2] to DNSESHPFIPLLKEKPN [RRP6], the protein stability index falls from 3.36 ± 0.079 to 1.99 ± 0.051.

First: DNSPSEDFMDIPKPRTA [SNF2]
Second: DPELLRSYIFGGHVSQY [RPL5]
The protein stability index of the first is lower: 2.77 ± 0.19 for the first, 3.17 ± 0.14 for the second.

DPESRTQSYNNQNTLKE [POP1] and DPRNLVNQTGSTKKDTV [YCG1] are within error of each other in protein stability index: 2.79 ± 0.05 for the first, 2.86 ± 0.039 for the second.

Going from DPSQNRLTGSLLAHKVA [RPC37] to DQFRDVEITFGKEFGDV [RRP45], the protein stability index rises from 2.31 ± 0.038 to 3.18 ± 0.067.

Going from DQLIISSSANKLLQLFL [YML103C/NUP188] to DQSNVQYYLSVLNQQLP [BRR2], the protein stability index rises from 2.54 ± 0.055 to 3.03 ± 0.06.

DQTFPINCNKETIENVK [ECM29] and DQYDAERDFYHSLREYI [RPO31] are within error of each other in protein stability index: 3.4 ± 0.088 for the first, 3.3 ± 0.091 for the second.

Compared with DRHIGCVYSGLIPDGRH [PRE10], DRPGSKFHKREVVEAVT [RPL3] is lower in protein stability index: 3.54 ± 0.12 for the first, 2.41 ± 0.13 for the second.

Reference: the supplement of paper PMC9732359
